# In publication PMC9499506, “TNF-α and IL-1β Modulate Blood-Brain Barrier Permeability and Decrease Amyloid-β Peptide Efflux in a Human Blood-Brain Barrier Model” (International Journal of Molecular Sciences, 2022):
# Tested on: BLECs
# Conditions: MTT assay; 10 ng·mL^−1, 24 h, abluminal compartment
# Experimental: An MTT assay was performed as a preliminary test to determine their effect on BLEC viability and to validate the chosen concentrations. Dimethyl sulfoxide (DMSO) at 10% (v/v) was used as a positive control of cell toxicity.
# After 6 days of coculture, TNF-α or IL-1β were added to the basolateral compartment (brain side) at 10 ng·mL^−1 for 24 h, at 37 °C and 5% CO2, to mimic CNS inflammation condition. Each condition was studied in triplicate.
# The standard MTT [3-(4,5-dimethylthiazol-2-yl)-2,5-diphenyltetrazolium bromide] assay (AR1156, Boster Biological Technology, Pleasanton, CA, USA) was performed to determine BLEC viability. Briefly, after coculture treatments, culture medium was removed and replaced with worm Ringer-Hepes (RH; 150 mM NaCl, 5.2 mM KCl, 2.2 mM CaCl2, 0.2 mM MgCl2–6H2O, 6 mM NaHCO3, 5 mM HEPES, 2.8 mM glucose; pH: 7.4) in basolateral compartment and with MTT solution (0.5 mg·mL^−1) in RH at in the opposite compartment for 3 h at 37 °C and 5% CO2. […] Aliquot was sampled in 96-well plate and the optical density (OD) was measured with a microplate reader (Synergy H1, BioTek. Colmar, France) at the wavelength of 570 and 630 nm. The percentage of relative cell viability compared to the control condition was subsequently determined using the following formula: % relative cell viability = ((OD570 − OD630) condition)/((OD570 – OD630)control) × 100.
substance,measurement,value
interleukin-1β [IL-1β],effect on BLEC viability,did not affect BLEC viability
